Measurements published in publication PMC11284795, “Development of Zalfermin, a Long-Acting Proteolytically Stabilized FGF21 Analog” (Journal of Medicinal Chemistry, 2024).
Numbering of substitutions follows the chain as printed.

B1: FGF21 analog 17 (-1A, 121Q, 168L, 180C, des181; C18 fatty diacid on 180C) (ligand, human)
chain: AHPIPDSSPLLQFGGQVRQRYLYTDDAQQTEAHLEIREDGTVGGAADQSPESLLQLKALKPGVIQILGVKTSRFLCQRPDGALYGSLHFDPEACSFRELLLEDGYNVYQSEAHGLPLHLPGQKSPHRDPAPRGPARFLPLPGLPPALPEPPGILAPQPPDVGSSDPLSLVGPSQGRSPSYC
modifications: C18 diacid gGlu-OEG-OEG-C2DA-Ac side chain on Cys180
notes: single amino acid N-terminal extension (-1A), giving the N-terminus AHPIP; human FGF21, mature hormone without its last residue Ser181; numbers count on: the mature protein; source: E. coli BL21 (DE3)-derived strain, inclusion bodies, purified; side chain conjugated to the Cys, purified by anion exchange (MonoQ)
B2: Met-FGF21 (1) (ligand, human)
chain: MHPIPDSSPLLQFGGQVRQRYLYTDDAQQTEAHLEIREDGTVGGAADQSPESLLQLKALKPGVIQILGVKTSRFLCQRPDGALYGSLHFDPEACSFRELLLEDGYNVYQSEAHGLPLHLPGNKSPHRDPAPRGPARFLPLPGLPPALPEPPGILAPQPPDVGSSDPLSMVGPSQGRSPSYAS
notes: single amino acid N-terminal extension (-1M), giving the N-terminus MHPIP; human FGF21, mature 181-residue hormone (N-terminus HPIP, C-terminus Ser181); numbers count on: the mature protein; also called human FGF21 with N-terminal Met extension; -1M; source: E. coli BL21 (DE3)-derived strain, inclusion bodies, purified (Q Sepharose FF, Phenyl FF, Source 30Q where needed)
B3: stabilized backbone (4): -1A, 121Q, 168L FGF21 (ligand, human)
chain: B2 chain with M1A, N122Q, M169L
notes: single amino acid N-terminal extension (-1A), giving the N-terminus AHPIP; human FGF21, mature 181-residue hormone; numbers count on: the mature protein; also called stabilized backbone of 15; source: E. coli BL21 (DE3)-derived strain, inclusion bodies, purified (Q Sepharose FF, Phenyl FF, Source 30Q where needed)
B4: FGF21 analog 18 (-1A, 121Q, 168L, 181C; C18 fatty diacid on 181C) (ligand, human)
chain: B2 chain with M1A, N122Q, M169L, S182C
modifications: C18 diacid gGlu-OEG-OEG-C2DA-Ac side chain on Cys181
notes: single amino acid N-terminal extension (-1A), giving the N-terminus AHPIP; human FGF21, mature 181-residue hormone; numbers count on: the mature protein; source: E. coli BL21 (DE3)-derived strain, inclusion bodies, purified; side chain conjugated to the Cys, purified by anion exchange (MonoQ)
B5: zalfermin (NNC0194-0499, 15) (ligand, human)
chain: B2 chain with M1A, N122Q, M169L, A181C
modifications: C18 diacid gGlu-OEG-OEG-C2DA-Ac side chain on Cys180
notes: single amino acid N-terminal extension (-1Ala), giving the N-terminus AHPIP; human FGF21, mature 181-residue hormone; numbers count on: the mature protein; 20.3 kDa; also called FGF21 analog 15; source: E. coli BL21 (DE3)-derived strain, inclusion bodies, purified; side chain conjugated to the Cys, purified by anion exchange (MonoQ)

Columns and labels:
[1] = biological target: T1, FGFR1c/KLB: ectodomain of human FGFR1c fused to Fc, with human beta-klotho (human, UniProt P11362 22-376; Q86Z14 53-996); assay: AlphaScreen or HTRF; competition: biotinylated FGF21 on streptavidin donor beads, ectodomain of human FGFR1c, FGFR2c, FGFR3c or FGFR4 fused to Fc on Protein A acceptor beads, human KLB protein added; signal inhibited by increasing doses of FGF21 analog; 0.1% ovalbumin; indirect measure of binding affinity, reported as IC50; conditions: both partners purified
T1 construct: ectodomain of human fibroblast growth factor receptor 1, c-isoform (FGFR1c); human beta-klotho (KLB, printed there as BKL) protein; FGFR-Fc on Protein A acceptor beads, KLB added in solution; the bought KLB is, as I recall, the extracellular domain; also called FGF-receptor complex; source: bought: R&D Systems (both proteins)

[2] = biological target: T2, human beta-klotho (KLB) on HEK293 cells (human, UniProt Q86Z14 1-1044); assay: cell-based or functional assay
[3] = biological target: T1, FGFR1c/KLB: ectodomain of human FGFR1c …; assay: cell-based or functional assay
[4] = biological target: FGFR3c/KLB: ectodomain of human FGFR3c fused to Fc, with human beta-klotho (human, UniProt P22607 23-375; Q86Z14 53-996); assay: cell-based or functional assay
[5] = biological target: T3, mouse beta-klotho (KLB) on HEK293 cells (mouse, UniProt Q99N32 1-1043); assay: cell-based or functional assay
T3 sequence (looked up): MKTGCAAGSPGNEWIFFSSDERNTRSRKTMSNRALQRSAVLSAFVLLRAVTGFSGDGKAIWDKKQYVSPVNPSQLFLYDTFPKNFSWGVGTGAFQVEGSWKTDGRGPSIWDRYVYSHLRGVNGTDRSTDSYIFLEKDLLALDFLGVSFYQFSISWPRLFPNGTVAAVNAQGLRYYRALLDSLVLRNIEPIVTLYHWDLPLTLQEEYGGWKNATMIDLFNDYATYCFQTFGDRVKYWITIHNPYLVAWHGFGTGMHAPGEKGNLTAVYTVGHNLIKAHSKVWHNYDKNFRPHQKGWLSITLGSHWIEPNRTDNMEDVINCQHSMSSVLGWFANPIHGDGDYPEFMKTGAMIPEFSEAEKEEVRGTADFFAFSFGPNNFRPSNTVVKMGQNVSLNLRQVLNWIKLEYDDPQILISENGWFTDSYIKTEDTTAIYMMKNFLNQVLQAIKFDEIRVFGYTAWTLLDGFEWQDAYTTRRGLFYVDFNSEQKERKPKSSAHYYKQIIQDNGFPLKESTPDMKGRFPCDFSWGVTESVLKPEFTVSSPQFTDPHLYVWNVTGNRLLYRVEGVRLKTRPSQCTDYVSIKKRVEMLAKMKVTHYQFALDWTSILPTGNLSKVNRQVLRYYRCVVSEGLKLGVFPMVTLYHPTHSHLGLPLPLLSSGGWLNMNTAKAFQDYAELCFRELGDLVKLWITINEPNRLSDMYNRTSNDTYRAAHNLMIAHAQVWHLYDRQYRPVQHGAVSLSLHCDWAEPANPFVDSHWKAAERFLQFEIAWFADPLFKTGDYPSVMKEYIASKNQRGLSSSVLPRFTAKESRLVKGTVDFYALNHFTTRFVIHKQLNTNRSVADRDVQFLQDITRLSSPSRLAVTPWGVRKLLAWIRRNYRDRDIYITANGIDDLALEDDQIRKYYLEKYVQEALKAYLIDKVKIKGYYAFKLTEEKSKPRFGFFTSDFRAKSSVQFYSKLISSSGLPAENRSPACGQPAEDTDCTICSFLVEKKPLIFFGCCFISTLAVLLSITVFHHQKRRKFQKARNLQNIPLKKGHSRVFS

[6] = biological target: cynomolgus monkey beta-klotho (KLB) on HEK293 cells (cynomolgus monkey); assay: cell-based or functional assay
[7] = biological target: T2, human beta-klotho (KLB) on HEK293 cells; assay: cell-based or functional assay; remark: listed apart in the source
[8] = biological target: BSA (albumin of the FAP incubations) (bovine, UniProt P02769 25-607); assay: cell-based or functional assay
Chain of BSA (albumin of the FAP incubations) (P02769 25-607): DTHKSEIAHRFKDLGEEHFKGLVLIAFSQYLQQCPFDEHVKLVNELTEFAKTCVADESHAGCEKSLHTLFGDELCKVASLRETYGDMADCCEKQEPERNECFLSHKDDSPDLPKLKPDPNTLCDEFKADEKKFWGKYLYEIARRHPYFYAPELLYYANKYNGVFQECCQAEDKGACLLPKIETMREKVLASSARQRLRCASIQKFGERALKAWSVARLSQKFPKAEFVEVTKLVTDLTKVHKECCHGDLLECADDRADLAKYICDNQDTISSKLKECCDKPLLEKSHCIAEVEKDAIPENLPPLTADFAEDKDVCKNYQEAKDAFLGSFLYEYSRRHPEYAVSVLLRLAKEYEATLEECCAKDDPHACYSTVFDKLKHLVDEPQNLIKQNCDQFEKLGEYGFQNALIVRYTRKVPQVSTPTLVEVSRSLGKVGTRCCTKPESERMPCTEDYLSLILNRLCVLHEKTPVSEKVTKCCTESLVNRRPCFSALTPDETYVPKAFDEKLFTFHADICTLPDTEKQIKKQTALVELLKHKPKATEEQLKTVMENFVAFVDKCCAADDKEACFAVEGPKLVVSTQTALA

[9] = biological target: the molecule itself; assay: AF4-MALS; 15 at 49-88 mg/mL in 10 mM phosphate, pH 8.2 with 2% glycerol, 1 uL injected; running buffer 10 mM phosphate pH 8.2 with 10 mM NaCl; analysed again after dilution to 5 mg/mL
[10] = biological target: human serum albumin (HSA) (human, UniProt P02768 25-609); assay: cell-based or functional assay

| Binder | pIC50 [1] | potency (EC50) of ERK phosphorylation in HEK293 cells transfected with human KLB, without HSA [2] [nM] | potency EC50 of ERK phosphorylation in Ba/F3 cells overexpressing human KLB and FGFR1c, 0% HSA [3] [nM] | potency EC50 of ERK phosphorylation in Ba/F3 cells overexpressing human KLB and FGFR3c (chimera with the kinase domain of FGFR1c), 0% HSA [4] [nM] | mean EC50 of ERK phosphorylation in HEK293 cells overexpressing mouse KLB [5] [nM] | mean EC50 of ERK phosphorylation in HEK293 cells overexpressing cynomolgus monkey KLB [6] [nM] | mean EC50 of ERK phosphorylation in HEK293 cells overexpressing human KLB (species qualification) [7] [nM] | potency (EC50) of ERK phosphorylation in HEK293 cells transfected with human KLB, without HSA (with 0.1, 1.0 and 1.5% HSA: 1.4, 0.9 and 1.5 nM, Table 3) [2] [nM] | t1/2 of 15 toward degradation by FAP in vitro in the presence of 0.1% albumin (27–57 min for 1, 15 and 5 without albumin) [8] [h] | binding result [9] | potency (EC50) of ERK phosphorylation in HEK293/human KLB cells with 0.1, 1.0 and 1.5% HSA: 23, 195 and 198 nM (3.3 nM without HSA) [10] [nM] |
| --- | --- | --- | --- | --- | --- | --- | --- | --- | --- | --- | --- |
| B1 | 5.79 ± 0.05 | 3.9 | – | – | – | – | – | – | – | – | – |
| B2 | 6.56 ± 0.89 | 1.6 | 3.7 | 10.8 | 0.3 | 1.8 | 3 | – | – | – | – |
| B3 | 6.18 ± 0.1 | – | – | – | – | – | – | 2 | – | – | – |
| B4 | 5.72 ± 0.02 | 39 | – | – | – | – | – | – | – | – | – |
| B5 | 6.13 ± 0.8 | 3.3 | 4.1 | 11.9 | 0.1 | 1.4 | 2.8 | – | 7.47 | binds | 198 |
